These results are taken from PMC3660137.

Substrate in the data set: CCCCCC(O)/C=C/C=O
The data set is described as follows: LC/MS of GSHNE conjugate, initial rate. It is filed as biochemical, Oncorhynchus kisutch. The note with it: 1 mM GSH, 30 °C, 10–150 μM HNE.

B1: OlfGST pi; OkGST pi; GST pi (Oncorhynchus kisutch) (protein)
chain: MGPYTITYFGVRGRCGAMRIMMADQGQEWKEILMDFADWTKGDLKASCVFGQLPKFEDGGLVLYQSNAILRHLGRNHDAYGKDGKEAARIDMMCDGVEDLRLKYGKMIYQEYDTGKDQYIKDLPNHLDKFEAVMAKNKTGFLVGDKPSFADYSLFEVLLNHLVLCSSCLDTSPSLKSFVEKMSARPKIKAFLGSDAYKKLPINGNGKQ
Take B1: the Km – broadly, the substrate concentration at which the rate is half of its maximum – was 160 ± 60 µM; the Vmax (in general, the top rate of the reaction or transport when substrate is in excess) is 0.5 µmol/min/mg; the catalytic constant (kcat) (commonly the maximal rate divided by the concentration of active sites) is 0.37 ± 0.09 s⁻¹; the catalytic efficiency (kcat/Km) (in general, the second-order rate constant that governs catalysis at low substrate concentration) is 2300 ± 1100 M⁻¹ s⁻¹.
